The text below walks through data of US20250171535A1, “COMPOSITIONS AND METHODS FOR DEPLETION OF DISEASED HEMATOPOIETIC STEM CELLS” (Jasper Therapeutics, Inc., priority 2022, published 2025).

Data set [1] relates to diseased HSC cells (CD34+CD45RA-CD117+ HSCs). The experiment in a line: Clinical study: depletion of diseased stem and progenitor cells in higher risk MDS or AML patients. To be noted: nine higher risk MDS or AML patients; single dose 0.6 mg/kg intravenously; 10-14 days post-treatment. It is filed as in vivo, human. The protocol:
FIG. 2 is a bar graph of the percent (%) depletion of CD34+CD45RA-CD117+ cells in nine myelodysplastic syndrome (MDS) and acute myeloid leukemia (AML) patients treated with a single dose of anti-c-kit antibody, measured 10-14 days post-treatment.
(§1) Nine patients having either higher risk MDS or AML were treated with a single dose of 0.6 mg/kg JSP191 administered intravenously.

Data set [2] can be described thus: Clinical study: safety and tolerability in higher risk MDS or AML patients. The format is in vivo, human. Conditions: 0.6 mg/kg intravenously. The protocol: as §1

With “JSP191: aglycosylated IgG1 humanized anti-c-kit (CD117) antibody, humanized form of murine SR1; heavy chain SEQ ID NO: 2, light chain SEQ ID NO: 3”, the “depletion of diseased HSC cells (CD34+CD45RA-CD117+ HSCs)” value in data set [1] is 30-95%. Also, in data set [2], the JSP191-related infusion reactions entry is recorded as “No significant JSP191-related infusion reactions were observed” and the adverse events result is given as “no significant adverse events were observed”. The safety and tolerability entry in data set [2] (ongoing clinical trial) is “safe and well-tolerated”.
